Results taken from patent publication US20240200091A1, “USE OF PROTOPORPHYRINOGEN OXIDASE” (BEIJING DABEINONG BIOTECHNOLOGY CO., LTD., priority 2021, published 2024).

Assays:
Format in all cases: in vivo
[1] = test system: Arabidopsis thaliana T1 plants; test: flumioxazin tolerance of transgenic Arabidopsis thaliana T1 plants (spray, grade of pesticide damage); details: for The grade of pesticide damage/plant: grade 0 / The grade of pesticide damage/plant: grade 1 / The grade of pesticide damage/plant: grade 2 / The grade of pesticide damage/plant: grade 3: 7 DAT, number of plants of 24 per genotype, grades
Outline: (§1)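 Herbicide rates in g ai/ha are as follows: oxyfluorfen 180 or 720, saflufenacil 25 or 100, flumioxazin 60 or 240, sulfentrazone 450 or 900, each against a water control. Sprays go onto PPO-transgenic T1 plants at 18 days. At 7 DAT, leaf-area injury is graded 0–3, with grades 0–1 counted as highly resistant.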

[2] = test system: transgenic soybean plants; test: saflufenacil tolerance of transgenic soybean plants (spray, grade of pesticide damage); details: for The grade of pesticide damage/plant: grade 0 / The grade of pesticide damage/plant: grade 1 / The grade of pesticide damage/plant: grade 2 / The grade of pesticide damage/plant: grade 3: 7 DAT, number of plants of 16 per genotype, grades
[3] = test system: Arabidopsis thaliana T1 plants; test: oxyfluorfen tolerance of transgenic Arabidopsis thaliana T1 plants (spray, grade of pesticide damage); details: for The grade of pesticide damage/plant: grade 0 / The grade of pesticide damage/plant: grade 1 / The grade of pesticide damage/plant: grade 2 / The grade of pesticide damage/plant: grade 3: 7 DAT, number of plants of 24 per genotype, grades
Outline: as §1

[4] = test system: Arabidopsis thaliana T1 plants; test: saflufenacil tolerance of transgenic Arabidopsis thaliana T1 plants (spray, grade of pesticide damage); details: for The grade of pesticide damage/plant: grade 0 / The grade of pesticide damage/plant: grade 1 / The grade of pesticide damage/plant: grade 2 / The grade of pesticide damage/plant: grade 3: 7 DAT, number of plants of 24 per genotype, grades
Outline: as §1

[5] = test system: transgenic soybean plants; test: flumioxazin tolerance of transgenic soybean plants (spray, grade of pesticide damage); details: for The grade of pesticide damage/plant: grade 0 / The grade of pesticide damage/plant: grade 1 / The grade of pesticide damage/plant: grade 2 / The grade of pesticide damage/plant: grade 3: 7 DAT, number of plants of 16 per genotype, grades
[6] = test system: transgenic soybean plants; test: oxyfluorfen tolerance of transgenic soybean plants (spray, grade of pesticide damage); details: for The grade of pesticide damage/plant: grade 0 / The grade of pesticide damage/plant: grade 1 / The grade of pesticide damage/plant: grade 2 / The grade of pesticide damage/plant: grade 3: 7 DAT, number of plants of 16 per genotype, grades
[7] = test system: Arabidopsis thaliana T1 plants; test: sulfentrazone tolerance of transgenic Arabidopsis thaliana T1 plants (spray, grade of pesticide damage); details: for The grade of pesticide: grade 0 / The grade of pesticide: grade 1 / The grade of pesticide: grade 2 / The grade of pesticide: grade 3: 7 DAT, number of plants of 24 per genotype, grades
Outline: as §1

B1: PPO-APA: nucleotide sequence encoding Arsenophonus protoporphyrinogen oxidase PPO-AP (SEQ ID NO:65), Arabidopsis thaliana/soybean common codon usage bias (nucleic acid)
DNA: ATGTCTTACCTGCTGTTATATTCAGGGAAAAATGGACAAACCAAGAAGATCATTCTGAAAATAACAGAGTATCTTCGAAAAGAAGGAAAGCAATGTGATGTTAGAGATTTGAACATGGATAAGAACTTCAACCTTTCTGTATATCAGAAGGTGCTCGTTGGTGCCTCGATAAGATATGGTCATTTCAATCCCGCAGTCCTCAATTTTGCTCAGAATCACCAAAAGGAGTTAAACACTATTCAATCAGCTTTCTTTGGCGTGAATTTGATGGCTCGTAAACAAGGAAAAGATACTCCTGAGACAAATGTGTATGTGAGGAAGTTTCTTGCCAAAATTCCATGGCAACCAACAATCACCAATGTTTTCAGTGGAGCGTTGAGGTATCCTCAGTACAAATGGCTTGACCGGATAATGATTCAGTTTATCATGAAGATTACTGGTGGTGAAACAAACAAAAACAAGGAAGTTGAATATACTGATTGGGAAAAGGTAGAGTACTTTGCAAGAGAGTTTAATGCTTTGAAATGA
modifications: The nucleotide sequence of PPO-APA
The grade of pesticide damage/plant: grade 0 ([1]; flumioxazin 60 g ai/ha (1×)): 0 plant | The grade of pesticide damage/plant: grade 1 ([1]; flumioxazin 60 g ai/ha (1×)): 0 plant | The grade of pesticide damage/plant: grade 2 ([1]; flumioxazin 60 g ai/ha (1×)): 0 plant | The grade of pesticide damage/plant: grade 3 ([1]; flumioxazin 60 g ai/ha (1×)): 24 plant | The grade of pesticide damage/plant: grade 0 ([1]; flumioxazin 240 g ai/ha (4×)): 0 plant | The grade of pesticide damage/plant: grade 1 ([1]; flumioxazin 240 g ai/ha (4×)): 0 plant | The grade of pesticide damage/plant: grade 2 ([1]; flumioxazin 240 g ai/ha (4×)): 0 plant | The grade of pesticide damage/plant: grade 3 ([1]; flumioxazin 240 g ai/ha (4×)): 24 plant | tolerance to flumioxazin ([1]; flumioxazin at different concentrations (60 and 240 g ai/ha)): basically no tolerance | The grade of pesticide damage/plant: grade 0 ([2]; saflufenacil 50 g ai/ha (2×)): 0 plant | The grade of pesticide damage/plant: grade 1 ([2]; saflufenacil 50 g ai/ha (2×)): 0 plant | The grade of pesticide damage/plant: grade 2 ([2]; saflufenacil 50 g ai/ha (2×)): 8 plant | The grade of pesticide damage/plant: grade 3 ([2]; saflufenacil 50 g ai/ha (2×)): 8 plant | The grade of pesticide damage/plant: grade 0 ([2]; saflufenacil 100 g ai/ha (4×)): 0 plant | The grade of pesticide damage/plant: grade 1 ([2]; saflufenacil 100 g ai/ha (4×)): 0 plant | The grade of pesticide damage/plant: grade 2 ([2]; saflufenacil 100 g ai/ha (4×)): 0 plant | The grade of pesticide damage/plant: grade 3 ([2]; saflufenacil 100 g ai/ha (4×)): 16 plant | tolerance to saflufenacil ([2]; soybean, saflufenacil, compared with the control vector and CK): basically no tolerance | The grade of pesticide damage/plant: grade 0 ([3]; oxyfluorfen 180 g ai/ha (1×)): 0 plant | The grade of pesticide damage/plant: grade 1 ([3]; oxyfluorfen 180 g ai/ha (1×)): 0 plant | The grade of pesticide damage/plant: grade 2 ([3]; oxyfluorfen 180 g ai/ha (1×)): 0 plant | The grade of pesticide damage/plant: grade 3 ([3]; oxyfluorfen 180 g ai/ha (1×)): 24 plant | The grade of pesticide damage/plant: grade 0 ([3]; oxyfluorfen 720 g ai/ha (4×)): 0 plant | The grade of pesticide damage/plant: grade 1 ([3]; oxyfluorfen 720 g ai/ha (4×)): 0 plant | The grade of pesticide damage/plant: grade 2 ([3]; oxyfluorfen 720 g ai/ha (4×)): 0 plant | The grade of pesticide damage/plant: grade 3 ([3]; oxyfluorfen 720 g ai/ha (4×)): 24 plant | tolerance to oxyfluorfen ([3]; oxyfluorfen at different concentrations (180 and 720 g ai/ha), compared with the control vector and CK): basically no tolerance | The grade of pesticide damage/plant: grade 0 ([4]; saflufenacil 25 g ai/ha (1×)): 0 plant | The grade of pesticide damage/plant: grade 1 ([4]; saflufenacil 25 g ai/ha (1×)): 0 plant | The grade of pesticide damage/plant: grade 2 ([4]; saflufenacil 25 g ai/ha (1×)): 0 plant | The grade of pesticide damage/plant: grade 3 ([4]; saflufenacil 25 g ai/ha (1×)): 24 plant | The grade of pesticide damage/plant: grade 0 ([4]; saflufenacil 100 g ai/ha (4×)): 0 plant | The grade of pesticide damage/plant: grade 1 ([4]; saflufenacil 100 g ai/ha (4×)): 0 plant | The grade of pesticide damage/plant: grade 2 ([4]; saflufenacil 100 g ai/ha (4×)): 0 plant | The grade of pesticide damage/plant: grade 3 ([4]; saflufenacil 100 g ai/ha (4×)): 24 plant | tolerance to saflufenacil ([4]; saflufenacil at four-fold field concentration (100 g ai/ha)): no tolerance | tolerance to saflufenacil ([4]; saflufenacil at one-fold field concentration (25 g ai/ha)): no tolerance | The grade of pesticide damage/plant: grade 0 ([5]; flumioxazin 120 g ai/ha (2×)): 0 plant | The grade of pesticide damage/plant: grade 1 ([5]; flumioxazin 120 g ai/ha (2×)): 0 plant | The grade of pesticide damage/plant: grade 2 ([5]; flumioxazin 120 g ai/ha (2×)): 0 plant | The grade of pesticide damage/plant: grade 3 ([5]; flumioxazin 120 g ai/ha (2×)): 16 plant | The grade of pesticide damage/plant: grade 0 ([5]; flumioxazin 240 g ai/ha (4×)): 0 plant | The grade of pesticide damage/plant: grade 1 ([5]; flumioxazin 240 g ai/ha (4×)): 0 plant | The grade of pesticide damage/plant: grade 2 ([5]; flumioxazin 240 g ai/ha (4×)): 0 plant | The grade of pesticide damage/plant: grade 3 ([5]; flumioxazin 240 g ai/ha (4×)): 16 plant | tolerance to flumioxazin ([5]; soybean, flumioxazin at different concentrations (120 and 240 g ai/ha)): no flumioxazin tolerance | The grade of pesticide damage/plant: grade 0 ([6]; oxyfluorfen 360 g ai/ha (2×)): 0 plant | The grade of pesticide damage/plant: grade 1 ([6]; oxyfluorfen 360 g ai/ha (2×)): 0 plant | The grade of pesticide damage/plant: grade 2 ([6]; oxyfluorfen 360 g ai/ha (2×)): 8 plant | The grade of pesticide damage/plant: grade 3 ([6]; oxyfluorfen 360 g ai/ha (2×)): 8 plant | The grade of pesticide damage/plant: grade 0 ([6]; oxyfluorfen 720 g ai/ha (4×)): 0 plant | The grade of pesticide damage/plant: grade 1 ([6]; oxyfluorfen 720 g ai/ha (4×)): 0 plant | The grade of pesticide damage/plant: grade 2 ([6]; oxyfluorfen 720 g ai/ha (4×)): 0 plant | The grade of pesticide damage/plant: grade 3 ([6]; oxyfluorfen 720 g ai/ha (4×)): 16 plant | tolerance to oxyfluorfen ([6]; soybean, oxyfluorfen at four-fold field concentration (720 g ai/ha)): no tolerance | The grade of pesticide: grade 0 ([7]; sulfentrazone 450 g ai/ha (1×)): 0 | The grade of pesticide: grade 1 ([7]; sulfentrazone 450 g ai/ha (1×)): 0 | The grade of pesticide: grade 2 ([7]; sulfentrazone 450 g ai/ha (1×)): 0 | The grade of pesticide: grade 3 ([7]; sulfentrazone 450 g ai/ha (1×)): 24 | The grade of pesticide: grade 0 ([7]; sulfentrazone 900 g ai/ha (2×)): 0 | The grade of pesticide: grade 1 ([7]; sulfentrazone 900 g ai/ha (2×)): 0 | The grade of pesticide: grade 2 ([7]; sulfentrazone 900 g ai/ha (2×)): 0 | The grade of pesticide: grade 3 ([7]; sulfentrazone 900 g ai/ha (2×)): 24 | tolerance to sulfentrazone ([7]; sulfentrazone at different concentrations (450 and 900 g ai/ha)): no tolerance
